According to patent publication US20060052582A1 (published 2006):

T1: HA Nercc (full-length Nercc1 with HA epitope tag) (human, UniProt Q8TD19 1-979)
T1 construct: also called HA Nercc FL
T1 sequence: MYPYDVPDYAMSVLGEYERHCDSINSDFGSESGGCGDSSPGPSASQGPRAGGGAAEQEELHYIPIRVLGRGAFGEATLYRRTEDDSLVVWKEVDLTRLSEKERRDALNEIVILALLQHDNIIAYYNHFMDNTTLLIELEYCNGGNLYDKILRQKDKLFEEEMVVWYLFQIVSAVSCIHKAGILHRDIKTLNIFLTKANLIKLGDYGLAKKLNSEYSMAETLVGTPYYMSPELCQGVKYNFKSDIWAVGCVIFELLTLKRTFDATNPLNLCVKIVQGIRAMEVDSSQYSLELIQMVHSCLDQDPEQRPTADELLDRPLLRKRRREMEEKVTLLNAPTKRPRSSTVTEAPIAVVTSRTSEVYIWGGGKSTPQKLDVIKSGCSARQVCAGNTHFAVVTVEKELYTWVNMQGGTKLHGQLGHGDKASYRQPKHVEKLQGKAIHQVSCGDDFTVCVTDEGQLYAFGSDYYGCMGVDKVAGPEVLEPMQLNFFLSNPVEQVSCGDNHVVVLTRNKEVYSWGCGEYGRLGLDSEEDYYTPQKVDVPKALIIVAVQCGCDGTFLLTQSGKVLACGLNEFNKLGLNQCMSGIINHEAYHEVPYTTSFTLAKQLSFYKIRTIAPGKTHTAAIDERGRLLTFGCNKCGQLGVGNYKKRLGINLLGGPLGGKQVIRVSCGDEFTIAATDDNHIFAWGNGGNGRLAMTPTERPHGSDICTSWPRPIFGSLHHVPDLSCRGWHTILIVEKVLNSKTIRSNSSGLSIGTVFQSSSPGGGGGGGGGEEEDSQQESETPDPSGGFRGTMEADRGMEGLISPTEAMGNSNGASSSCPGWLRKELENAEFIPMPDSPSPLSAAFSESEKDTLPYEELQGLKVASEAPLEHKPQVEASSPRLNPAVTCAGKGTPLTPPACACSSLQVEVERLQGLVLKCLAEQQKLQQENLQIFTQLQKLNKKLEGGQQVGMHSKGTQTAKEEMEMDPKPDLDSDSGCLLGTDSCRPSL

B1: NLS Nercc FL (nuclear form of full length Nercc with an NLS peptide at the N-terminus) (enzyme)
chain: MSVLGEYERHCDSINSDFGSESGGCGDSSPGPSASQGPRAGGGAAEQEELHYIPIRVLGRGAFGEATLYRRTEDDSLVVWKEVDLTRLSEKERRDALNEIVILALLQHDNIIAYYNHFMDNTTLLIELEYCNGGNLYDKILRQKDKLFEEEMVVWYLFQIVSAVSCIHKAGILHRDIKTLNIFLTKANLIKLGDYGLAKKLNSEYSMAETLVGTPYYMSPELCQGVKYNFKSDIWAVGCVIFELLTLKRTFDATNPLNLCVKIVQGIRAMEVDSSQYSLELIQMVHSCLDQDPEQRPTADELLDRPLLRKRRREMEEKVTLLNAPTKRPRSSTVTEAPIAVVTSRTSEVYIWGGGKSTPQKLDVIKSGCSARQVCAGNTHFAVVTVEKELYTWVNMQGGTKLHGQLGHGDKASYRQPKHVEKLQGKAIHQVSCGDDFTVCVTDEGQLYAFGSDYYGCMGVDKVAGPEVLEPMQLNFFLSNPVEQVSCGDNHVVVLTRNKEVYSWGCGEYGRLGLDSEEDYYTPQKVDVPKALIIVAVQCGCDGTFLLTQSGKVLACGLNEFNKLGLNQCMSGIINHEAYHEVPYTTSFTLAKQLSFYKIRTIAPGKTHTAAIDERGRLLTFGCNKCGQLGVGNYKKRLGINLLGGPLGGKQVIRVSCGDEFTIAATDDNHIFAWGNGGNGRLAMTPTERPHGSDICTSWPRPIFGSLHHVPDLSCRGWHTILIVEKVLNSKTIRSNSSGLSIGTVFQSSSPGGGGGGGGGEEEDSQQESETPDPSGGFRGTMEADRGMEGLISPTEAMGNSNGASSSCPGWLRKELENAEFIPMPDSPSPLSAAFSESEKDTLPYEELQGLKVASEAPLEHKPQVEASSPRLNPAVTCAGKGTPLTPPACACSSLQVEVERLQGLVLKCLAEQQKLQQENLQIFTQLQKLNKKLEGGQQVGMHSKGTQTAKEEMEMDPKPDLDSDSGCLLGTDSCRPSL
notes: Probably FLAG-tagged like the other constructs; not shown: NLS peptide (a copy of the Nercc NLS)
B2: FLAG Nercc (full-length wild type Nercc1 kinase with FLAG epitope tag) (enzyme)
chain: MDYKDDDDKMSVLGEYERHCDSINSDFGSESGGCGDSSPGPSASQGPRAGGGAAEQEELHYIPIRVLGRGAFGEATLYRRTEDDSLVVWKEVDLTRLSEKERRDALNEIVILALLQHDNIIAYYNHFMDNTTLLIELEYCNGGNLYDKILRQKDKLFEEEMVVWYLFQIVSAVSCIHKAGILHRDIKTLNIFLTKANLIKLGDYGLAKKLNSEYSMAETLVGTPYYMSPELCQGVKYNFKSDIWAVGCVIFELLTLKRTFDATNPLNLCVKIVQGIRAMEVDSSQYSLELIQMVHSCLDQDPEQRPTADELLDRPLLRKRRREMEEKVTLLNAPTKRPRSSTVTEAPIAVVTSRTSEVYIWGGGKSTPQKLDVIKSGCSARQVCAGNTHFAVVTVEKELYTWVNMQGGTKLHGQLGHGDKASYRQPKHVEKLQGKAIHQVSCGDDFTVCVTDEGQLYAFGSDYYGCMGVDKVAGPEVLEPMQLNFFLSNPVEQVSCGDNHVVVLTRNKEVYSWGCGEYGRLGLDSEEDYYTPQKVDVPKALIIVAVQCGCDGTFLLTQSGKVLACGLNEFNKLGLNQCMSGIINHEAYHEVPYTTSFTLAKQLSFYKIRTIAPGKTHTAAIDERGRLLTFGCNKCGQLGVGNYKKRLGINLLGGPLGGKQVIRVSCGDEFTIAATDDNHIFAWGNGGNGRLAMTPTERPHGSDICTSWPRPIFGSLHHVPDLSCRGWHTILIVEKVLNSKTIRSNSSGLSIGTVFQSSSPGGGGGGGGGEEEDSQQESETPDPSGGFRGTMEADRGMEGLISPTEAMGNSNGASSSCPGWLRKELENAEFIPMPDSPSPLSAAFSESEKDTLPYEELQGLKVASEAPLEHKPQVEASSPRLNPAVTCAGKGTPLTPPACACSSLQVEVERLQGLVLKCLAEQQKLQQENLQIFTQLQKLNKKLEGGQQVGMHSKGTQTAKEEMEMDPKPDLDSDSGCLLGTDSCRPSL
notes: Expressed in HEK293 cells; also called FLAG Nercc1; FLAG Nercc full length (FL)
B3: Nercc (338-739) fused to the Nercc NLS (other)
chain: PIAVVTSRTSEVYIWGGGKSTPQKLDVIKSGCSARQVCAGNTHFAVVTVEKELYTWVNMQGGTKLHGQLGHGDKASYRQPKHVEKLQGKAIHQVSCGDDFTVCVTDEGQLYAFGSDYYGCMGVDKVAGPEVLEPMQLNFFLSNPVEQVSCGDNHVVVLTRNKEVYSWGCGEYGRLGLDSEEDYYTPQKVDVPKALIIVAVQCGCDGTFLLTQSGKVLACGLNEFNKLGLNQCMSGIINHEAYHEVPYTTSFTLAKQLSFYKIRTIAPGKTHTAAIDERGRLLTFGCNKCGQLGVGNYKKRLGINLLGGPLGGKQVIRVSCGDEFTIAATDDNHIFAWGNGGNGRLAMTPTERPHGSDICTSWPRPIFGSLHHVPDLSCRGWHTILIVEKVLNSKTIRSNSSG
notes: also called Nercc RCC1 domain directed to the nucleus; not shown: Nercc NLS
B4: FLAG Nercc (338-739) (other)
chain: MDYKDDDDKPIAVVTSRTSEVYIWGGGKSTPQKLDVIKSGCSARQVCAGNTHFAVVTVEKELYTWVNMQGGTKLHGQLGHGDKASYRQPKHVEKLQGKAIHQVSCGDDFTVCVTDEGQLYAFGSDYYGCMGVDKVAGPEVLEPMQLNFFLSNPVEQVSCGDNHVVVLTRNKEVYSWGCGEYGRLGLDSEEDYYTPQKVDVPKALIIVAVQCGCDGTFLLTQSGKVLACGLNEFNKLGLNQCMSGIINHEAYHEVPYTTSFTLAKQLSFYKIRTIAPGKTHTAAIDERGRLLTFGCNKCGQLGVGNYKKRLGINLLGGPLGGKQVIRVSCGDEFTIAATDDNHIFAWGNGGNGRLAMTPTERPHGSDICTSWPRPIFGSLHHVPDLSCRGWHTILIVEKVLNSKTIRSNSSG
notes: also called Nercc RCC1 domain; Nercc RCC1-like domain
B5: FLAG Nercc (1-891) (enzyme)
chain: MDYKDDDDKMSVLGEYERHCDSINSDFGSESGGCGDSSPGPSASQGPRAGGGAAEQEELHYIPIRVLGRGAFGEATLYRRTEDDSLVVWKEVDLTRLSEKERRDALNEIVILALLQHDNIIAYYNHFMDNTTLLIELEYCNGGNLYDKILRQKDKLFEEEMVVWYLFQIVSAVSCIHKAGILHRDIKTLNIFLTKANLIKLGDYGLAKKLNSEYSMAETLVGTPYYMSPELCQGVKYNFKSDIWAVGCVIFELLTLKRTFDATNPLNLCVKIVQGIRAMEVDSSQYSLELIQMVHSCLDQDPEQRPTADELLDRPLLRKRRREMEEKVTLLNAPTKRPRSSTVTEAPIAVVTSRTSEVYIWGGGKSTPQKLDVIKSGCSARQVCAGNTHFAVVTVEKELYTWVNMQGGTKLHGQLGHGDKASYRQPKHVEKLQGKAIHQVSCGDDFTVCVTDEGQLYAFGSDYYGCMGVDKVAGPEVLEPMQLNFFLSNPVEQVSCGDNHVVVLTRNKEVYSWGCGEYGRLGLDSEEDYYTPQKVDVPKALIIVAVQCGCDGTFLLTQSGKVLACGLNEFNKLGLNQCMSGIINHEAYHEVPYTTSFTLAKQLSFYKIRTIAPGKTHTAAIDERGRLLTFGCNKCGQLGVGNYKKRLGINLLGGPLGGKQVIRVSCGDEFTIAATDDNHIFAWGNGGNGRLAMTPTERPHGSDICTSWPRPIFGSLHHVPDLSCRGWHTILIVEKVLNSKTIRSNSSGLSIGTVFQSSSPGGGGGGGGGEEEDSQQESETPDPSGGFRGTMEADRGMEGLISPTEAMGNSNGASSSCPGWLRKELENAEFIPMPDSPSPLSAAFSESEKDTLPYEELQGLKVASEAPLEHKPQVEASSPRLNPAVTCAGKGTPLTPPACA

Columns and labels:
Ran G19V = Ran G19V (UniProt P62826 1-216); assay: co-expression and co-immunoprecipitation
From the text: (§1) To address more directly the relative binding in vivo of Nercc to Ran-GDP compared to Ran-GTP, the cytoplasmic wild type Nercc and a nuclear form of full length Nercc (NLS-Nercc) were each co-expressed with wild type Ran or Ran mutants that bind GDP (T24N) or GTP (G19V) exclusively; either Ran or Nercc was immunoprecipitated and probed for the association with the other polypeptide. The full-length wild type Nercc bound co-expressed wild type Ran and Ran T24N to a greater extent than RanG19V.

[1] = target: T1, HA Nercc (full-length Nercc1 with HA …); assay: anti-HA immunoprecipitation from co-transfected HEK293 cells, anti-FLAG blot
Ran T24N = Ran T24N (UniProt P62826 1-216); assay: co-expression and co-immunoprecipitation
From the text: as §1

| Binder | binding result (Ran G19V) | binding result [1] | binding result (Ran T24N) |
| --- | --- | --- | --- |
| B1 | no binding |  |  |
| B2 |  | binds |  |
| B3 | no binding |  | no binding |
| B4 | no binding |  | no binding |
| B5 |  | no binding |  |
